# Results: paper doi:10.1101/2022.04.15.488344 (bioRxiv, 2022)
# Biological target: the molecule itself
# Experiment: crystal structure
protein,measurement,value
"ERα ligand binding domain (LBD) (305–555) with a Y537S mutation (domain or fragment, UniProt P03372 305-555, looked up) SLALSLTADQMVSALLDAEPPILYSEYDPTRPFSEASMMGLLTNLADRELVHMINWAKRVPGFVDLTLHDQVHLLECAWLEILMIGLVWRSMEHPGKLLFAPNLLLDRNQGKCVEGMVEIFDMLLATSSRFRMMNLQGEEFVCLKSIILLNSGVYTFLSSTLKSLEEKDHIHRVLDKITDTLIHLMAKAGLTLQQQHQRLAQLLLILSHIRHMSNKGMEHLYSMKCKNVVPLSDLLLEMLDAHRLHAPTSR",stoichiometry N,2
